Measured values from patent US20220033501A1 (SHANGHAI PHARMAEXPLORER, published 2022).

T1: human TIM-3 protein with hFc tag (hTIM-3-hFc protein) (human, UniProt Q8TDQ0 22-200)
T1 construct: also called immunogen 1; human TIM-3 extracellular domain protein; not shown: human IgG Fc fragment (hFc) of the pCpC vector
T1 sequence: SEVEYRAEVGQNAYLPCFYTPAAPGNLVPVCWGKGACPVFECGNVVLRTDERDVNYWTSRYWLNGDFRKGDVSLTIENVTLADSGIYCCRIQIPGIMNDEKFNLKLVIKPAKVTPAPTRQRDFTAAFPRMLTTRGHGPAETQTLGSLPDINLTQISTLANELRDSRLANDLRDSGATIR

T2: monkey TIM-3 protein with hFc tag (cTIM-3-hFc protein) (monkey; human)
T2 construct: Made in HEK293 cells; also called monkey TIM-3 extracellular domain protein; not shown: human IgG Fc fragment (hFc) of the pCpC vector
T2 chain: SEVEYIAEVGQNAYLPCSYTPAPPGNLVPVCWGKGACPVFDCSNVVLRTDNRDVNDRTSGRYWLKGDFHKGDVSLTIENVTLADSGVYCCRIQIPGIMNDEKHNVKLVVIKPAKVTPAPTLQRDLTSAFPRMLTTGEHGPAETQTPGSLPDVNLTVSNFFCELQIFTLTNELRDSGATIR

T3: monkey TIM-3 on CHOK1 stable cell line (CHOK1-cTIM-3) (monkey)
T3 chain: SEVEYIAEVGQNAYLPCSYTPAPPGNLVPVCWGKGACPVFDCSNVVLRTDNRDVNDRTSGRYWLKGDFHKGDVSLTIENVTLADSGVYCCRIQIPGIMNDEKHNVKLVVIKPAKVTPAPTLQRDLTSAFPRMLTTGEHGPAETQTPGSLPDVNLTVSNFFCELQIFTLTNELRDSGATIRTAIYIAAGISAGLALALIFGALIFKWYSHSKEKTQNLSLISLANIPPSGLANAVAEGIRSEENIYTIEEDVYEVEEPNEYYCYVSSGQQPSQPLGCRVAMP

T4: human TIM-3 on CHOK1 stable cell line (CHOK1-hTIM-3) (human, UniProt Q8TDQ0 22-301)
T4 sequence: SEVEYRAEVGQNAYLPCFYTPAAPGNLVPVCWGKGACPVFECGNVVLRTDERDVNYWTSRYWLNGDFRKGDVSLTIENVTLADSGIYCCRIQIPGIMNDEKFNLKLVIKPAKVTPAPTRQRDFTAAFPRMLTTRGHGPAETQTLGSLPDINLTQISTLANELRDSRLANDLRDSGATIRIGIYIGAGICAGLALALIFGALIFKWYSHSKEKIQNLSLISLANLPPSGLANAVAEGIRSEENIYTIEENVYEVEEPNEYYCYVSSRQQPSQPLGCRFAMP

T5: monkey TIM-3 extracellular domain protein with hFc tag (cTIM-3-hFc) (monkey)
T5 construct: not shown: human IgG Fc fragment (hFc) of the pCpC vector
T5 chain: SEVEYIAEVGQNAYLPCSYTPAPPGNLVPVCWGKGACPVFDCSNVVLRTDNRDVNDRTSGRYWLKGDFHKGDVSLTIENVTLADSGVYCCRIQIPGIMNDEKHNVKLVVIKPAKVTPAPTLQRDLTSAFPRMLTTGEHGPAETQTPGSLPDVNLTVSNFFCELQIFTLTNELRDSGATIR

T6: human TIM-3 extracellular domain protein with hFc tag (hTIM-3-hFc) (human, UniProt Q8TDQ0 22-200)
T6 construct: not shown: human IgG Fc fragment (hFc) of the pCpC vector
T6 sequence: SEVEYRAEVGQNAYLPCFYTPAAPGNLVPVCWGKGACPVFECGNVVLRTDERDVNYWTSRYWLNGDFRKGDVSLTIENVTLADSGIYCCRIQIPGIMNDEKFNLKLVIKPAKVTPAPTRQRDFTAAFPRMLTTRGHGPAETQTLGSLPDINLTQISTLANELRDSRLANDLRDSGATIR


Legend:
[1] = target: T1, human TIM-3 protein with hFc tag …; experiment: ELISA, coated hTIM-3-hFc; antibody 0.0007 nM
Description: (§1) The amino acid sequence 22-200 of the extracellular domain of the human TIM-3 protein described in the step of Example 1 (as shown in SEQ ID NO. 71 in the sequence listing) was cloned into a pCpC vector having a human IgG Fc fragment (hFc), and transfected into HEK293 cells. The cell culture medium was collected, and purified to obtain the human TIM-3 protein with hFc tag (herein referred to as hTIM-3-hFc protein). The amino acid sequence 22-201 of the extracellular domain of the monkey TIM-3 protein (as shown in SEQ ID NO. 72 in the sequence listing) was cloned into a pCpC vector having a human IgG Fc fragment (hFc), and transfected into HEK293 cells. The cell culture medium was collected, and purified to obtain the monkey TIM-3 protein with hFc tag (herein referred to as cTIM-3-hFc protein). […] The cell culture medium was collected, and purified to obtain the murine TIM-3 protein with hFc tag (herein referred to as mTIM-3-hFc protein). Purified human, monkey, and mouse TIM-3 extracellular domain proteins (hTIM-3-hFc, cTIM-3-hFc, and mTIM-3-hFc) were diluted with PBS to a final concentration of 1.0 μg/ml and then added to a 96-well ELISA plate with 100 μl per well. The plate was sealed with plastic film and incubated overnight at 4° C. The plate was washed 4 times with the plate washing solution (PBS+0.01% Tween20) on the next day, and added with the blocking solution (PBS+0.01% Tween20+1% BSA) and sealed at room temperature for 1-2 hours. The blocking solution was poured out. 50-100 μl of the antibody sample to be tested was added to each well. The plate was incubated at 37° C. for 1-2 hours, and washed 2-3 times with plate washing solution (PBS+0. 01% Tween20). HRP (horseradish peroxidase) labeled secondary antibody was added. The plate was incubated at 37° C. for 1-2 hours, and washed 2-3 times with plate washing solution (PBS+0. 01% Tween20). […] of TMB substrate was added to each well. After incubated at room temperature for 15-30 minutes, the plate was added with […] stop solution (1.0N HCl) to each well. An ELISA plate reader (TiterMax 384plus, Molecular Device) was used to read the A450 nm value.

[2] = target: T2, monkey TIM-3 protein with hFc tag …; experiment: ELISA, coated cTIM-3-hFc; antibody 0.6667 nM
Description: as §1

[3] = target: T2, monkey TIM-3 protein with hFc tag …; experiment: ELISA, coated cTIM-3-hFc; antibody 6.6667 nM
Description: as §1

[4] = target: T3, monkey TIM-3 on CHOK1 stable cell line …; experiment: FACS, CHOK1-cTIM-3 cells, 0 nM antibody
[5] = target: T4, human TIM-3 on CHOK1 stable cell line …; experiment: FACS, CHOK1-hTIM-3 cells, 1.6 nM antibody
[6] = target: T4, human TIM-3 on CHOK1 stable cell line …; experiment: FACS, CHOK1-hTIM-3 cells, 0.013 nM antibody
[7] = target: T5, monkey TIM-3 extracellular domain …; experiment: ELISA, coated monkey TIM-3 ECD protein, 0 nM antibody
[8] = target: T6, human TIM-3 extracellular domain …; experiment: ELISA, coated human TIM-3 ECD protein, 0.0007 nM antibody
[9] = target: T6, human TIM-3 extracellular domain …; experiment: ELISA, coated human TIM-3 ECD protein, 0.6667 nM antibody
[10] = target: T6, human TIM-3 extracellular domain …; experiment: ELISA, coated human TIM-3 ECD protein, 66.667 nM antibody

| Binder | OD450 [1] | OD450 [2] | OD450 [3] | Mean fluorescence intensity [4] | Mean fluorescence intensity [5] | Mean fluorescence intensity [6] | OD450 [7] | OD450 [8] | OD450 [9] | OD450 [10] |
| --- | --- | --- | --- | --- | --- | --- | --- | --- | --- | --- |
| 34B6D8 (TIM-3 antibody purified from hybridoma, chimeric antibody of Example 2) (antibody, V domains shown, From hybridoma of Harbour H2L2 transgenic mice: human variable regions, rat constant regions) VH: EVQLVESGGGLVQPGGSLRLSCAASGFTFSTYWMTWVRQAPGKRLEWVANIKQGGGDKYYVDSVKGRFTISTDNAKNSLYLQMNSLRAEDTAVYYCARGSNWFDPWGQGTLVTVSS VL: EIVMTQSPATLSMSPGERATLSCRASQSVYDNLAWYQQKPGQAPRLLIYGASTRATGIPARFSGSGSGTEFTLTISSLQSEDFALYYCQQYTHWPITFGQGTRLEIK | 0.15 | 3.44 | 3.55 |  |  |  |  |  |  |  |
| 57F4E5 fully human TIM-3 antibody (human IgG4, kappa) (antibody, V domains shown) VH: EVQLVESGGGLVQPGGSLRLSCAASGFTFSSYWMSWVRQAPGKGLEWVANIKQDGSEKYYVDSVKGRFTISRDSAKNSLYLQMNSLRAEDTAMYFCARDSNFFDYWGQGTLVTVSS VL: ETVMTQSPATLSVSPGERATLSCRASQSVSSNLAWYQRKPGQAPRLLIYFSSTRATGIPARFSGSGSGTEFTLTISSLQSEDFAVYYCQQYNNWPLTFGGGTKVEIK |  |  |  | 2.9 | 156 | 9.6 | 0.16 | 0.11 | 2.89 | 3.06 |
| 134H3G6 (TIM-3 antibody purified from hybridoma, chimeric antibody of Example 2) (antibody, V domains shown, From hybridoma of Harbour H2L2 transgenic mice: human variable regions, rat constant regions) VH: EVQLVESGGGLVQPGGSLRLSCAASGFTFSNSWMTWVRQAPGKGLEWVANIKQAGTEKYYVDSVKGRFTISRDNAKNSLYLQMNSLRAEDTAVYYCNSGSNYFDYWGQGTLVTVSS VL: EIVMTQSPATLSVSPGERATLSCRARQNFYSNLAWYQQKPGQAPRLLIYGASTRATGIPARFSGSGSGTEFTLTISSLQSEDFAVYYCQQYNNWPLTFGGGTKVEIK | 0.13 | 1.22 | 3.02 |  |  |  |  |  |  |  |
| 134H3G6 fully human TIM-3 antibody (human IgG4, kappa) (antibody, V domains shown) VH: EVQLVESGGGLVQPGGSLRLSCAASGFTFSNSWMTWVRQAPGKGLEWVANIKQAGTEKYYVDSVKGRFTISRDNAKNSLYLQMNSLRAEDTAVYYCNSGSNYFDYWGQGTLVTVSS VL: EIVMTQSPATLSVSPGERATLSCRARQNFYSNLAWYQQKPGQAPRLLIYGASTRATGIPARFSGSGSGTEFTLTISSLQSEDFAVYYCQQYNNWPLTFGGGTKVEIK |  |  |  | 2.9 | 207 | 13.5 | 0.13 | 0.1 | 2.74 | 2.77 |
| 18D2H2 (TIM-3 antibody purified from hybridoma, chimeric antibody of Example 2) (antibody, V domains shown, From hybridoma of Harbour H2L2 transgenic mice: human variable regions, rat constant regions) VH: EVQLVESGGDLVQPGGSLRLSCAASGFTFSTYWMTWVRQAPGRGLEWVANIKQDGSAKYYVDSVKGRFTLSRDDAKNSLYLQMNSLRAEDTAVYYCARGSNWFDYWGQGTLVTVSS VL: ETVMTQSPATLSVSPGERATLSCRANQNVYSNLAWYQQKPGQAPRLLIYDASTRATGFPARFSGSGSGTEFTLTISSLQSEDFAVYYCQQYNNWPLTFGGGTKVEIK | 0.12 | 1.89 | 3.34 |  |  |  |  |  |  |  |
| 57F4E5 (TIM-3 antibody purified from hybridoma, chimeric antibody of Example 2) (antibody, V domains shown, From hybridoma of Harbour H2L2 transgenic mice: human variable regions, rat constant regions) VH: EVQLVESGGGLVQPGGSLRLSCAASGFTFSSYWMSWVRQAPGKGLEWVANIKQDGSEKYYVDSVKGRFTISRDSAKNSLYLQMNSLRAEDTAMYFCARDSNFFDYWGQGTLVTVSS VL: ETVMTQSPATLSVSPGERATLSCRASQSVSSNLAWYQRKPGQAPRLLIYFSSTRATGIPARFSGSGSGTEFTLTISSLQSEDFAVYYCQQYNNWPLTFGGGTKVEIK | 0.19 | 3.45 | 3.48 |  |  |  |  |  |  |  |
| 39E5H1 (TIM-3 antibody purified from hybridoma, chimeric antibody of Example 2) (antibody, V domains shown, From hybridoma of Harbour H2L2 transgenic mice: human variable regions, rat constant regions) VH: EVQLVESGGGLVQPGGSLRLSCAASGFTFSSYWMSWVRQAPGKGLEWVANIKRGGSERYYVDSVKGRFTISGDNAKNSVYLQMNSLRAEDTAVYYCARGSNWFDPWGQGTLVTVSS VL: ETVMTQSPAILSVSPGERATLSCRASQSVYSNLAWYQQKLGQAPRLLIYDASTRATGIPARFSGSGSGTEFTLTISSLQSEDFAVYYCQQYNNWPITFGQGTRLEIK | 0.16 | 3.41 | 3.5 |  |  |  |  |  |  |  |
| 215A8F2 fully human TIM-3 antibody (human IgG4, kappa) (antibody, V domains shown) VH: QVQLQQWGAGLLKPSETLSLTCTVYGGSFSGYYWNWIRQPPGKGLEWLGEINHSGSTNYNPSLKRRVTISVDTSKNQFSLKLSSVTAADTAVYYCARVYYYGPFDFWGQGTLVTVSS VL: not shown |  |  |  | 2.8 | 235 | 8.2 | 0.13 | 0.1 | 2.88 | 3.08 |
| 215A8F2 (TIM-3 antibody purified from hybridoma, chimeric antibody of Example 2) (antibody, V domains shown, From hybridoma of Harbour H2L2 transgenic mice: human variable regions, rat constant regions) VH: QVQLQQWGAGLLKPSETLSLTCTVYGGSFSGYYWNWIRQPPGKGLEWLGEINHSGSTNYNPSLKRRVTISVDTSKNQFSLKLSSVTAADTAVYYCARVYYYGPFDFWGQGTLVTVSS VL: not shown | 0.14 | 3.26 | 3.45 |  |  |  |  |  |  |  |
| 7A4F10 fully human TIM-3 antibody (human IgG4, kappa) (antibody, V domains shown) VH: EVQLLESGGGLVQPGGSLRLSCAASGFTFRTHLISWVRQAPGKGLEWVAAITGSGGSTYYADSVKGRFIISRDNSKNTLFLQMNSLRAEDTAVYYCAKDGGSGSYDDFWGQGTLVTVSS VL: ETVLTQSPVTLSLSPGERATLSCRASQSVGSYLAWYQQKPGQAPRLLIYDASNRATGIPARFSGSGSGTDFTLTISSLEPEDFAVYYCQQRSNWPPTFGQGTKVEIK |  |  |  | 2.8 | 282 | 9.7 | 0.13 | 0.11 | 2.75 | 3.02 |
| 7A4F10 (TIM-3 antibody purified from hybridoma, chimeric antibody of Example 2) (antibody, V domains shown, From hybridoma of Harbour H2L2 transgenic mice: human variable regions, rat constant regions) VH: EVQLLESGGGLVQPGGSLRLSCAASGFTFRTHLISWVRQAPGKGLEWVAAITGSGGSTYYADSVKGRFIISRDNSKNTLFLQMNSLRAEDTAVYYCAKDGGSGSYDDFWGQGTLVTVSS VL: ETVLTQSPVTLSLSPGERATLSCRASQSVGSYLAWYQQKPGQAPRLLIYDASNRATGIPARFSGSGSGTDFTLTISSLEPEDFAVYYCQQRSNWPPTFGQGTKVEIK | 0.12 | 1.35 | 3.12 |  |  |  |  |  |  |  |
